For one substance, ratio to parent results are on record in publication PMC9281127.

This experiment addresses His-tagged PD-L1 (programmed death-ligand 1) (UniProt Q9NZQ7). The experiment is described as follows: co-immunoprecipitation (IP: His, IB: Flag). Particulars: co-transfected plasmids, parent: 1.0.
Chain of UniProt Q9NZQ7 (Q9NZQ7 19-290): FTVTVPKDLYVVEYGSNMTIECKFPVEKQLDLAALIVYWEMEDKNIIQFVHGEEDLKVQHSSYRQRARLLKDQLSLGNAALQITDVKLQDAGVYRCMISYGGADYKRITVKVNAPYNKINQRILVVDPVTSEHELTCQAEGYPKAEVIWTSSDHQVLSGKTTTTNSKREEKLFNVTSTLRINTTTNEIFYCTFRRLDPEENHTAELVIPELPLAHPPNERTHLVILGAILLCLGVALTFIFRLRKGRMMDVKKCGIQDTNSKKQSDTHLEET

“Flag-tagged ZG16 (zymogen granule protein 16) (from UniProt O60844) K36A; R37A; K79A; R53A; R55A”: the ratio to parent came out at 0.6 (HCT116 cells) and 0.5 (SW480 cells).
